Results reported in article PMC2963168, “Identification, Cloning, and Characterization of L-Phenylserine Dehydrogenase from Pseudomonas syringae NK-15” (Enzyme Research, 2010).

B1: L-phenylserine dehydrogenase (ORF3; L-PSDH) (Pseudomonas syringae) (protein)
chain: MSFPVCLVTGAATGIGAATALRFARDGWGVAINNFDDSTRADAERVAAQCREAGAQTLVIDADVGDDGACRRMVEQVAAQWGRIDALVNSAGTTRVIPHSDFEAIDPDEFERIYRVNLIGMFQMTRAATPLLRESFCPGHFASVLHVSSLASLYGTGLHPAYAASKGAVNSLTLSLARNLAPLVRVNAIAPGMVDDGLLRRVLGDEADGRVVESMRENAPLKRVSQPAEIAELAWFLAAHAPAMTGQVLAIENGLLLNT
notes: 98 kDa native, probably homotetramer; AB499092 is the 9,246-bp operon entry, which also holds D-phenylserine dehydrogenase (orf5)

What was measured:
[1] = target: L-phenylserine dehydrogenase (ORF3) from Pseudomonas syringae NK-15 (Pseudomonas syringae NK-15); test: SEC; HPLC gel filtration on a TSK-GEL G3000SW column (0.75 x 60 cm) at room temperature, 0.1 M potassium phosphate buffer (pH 7.0) with 0.2 M NaCl, 0.7 ml/min; native mass 98 kDa against a subunit of 27 kDa by SDS-PAGE
purified protein [2] = substrate: NC(=O)c1ccc[n+]([C@@H]2O[C@H](COP(=O)(O)OP(=O)(O)OC[C@H]3O[C@@H](n4cnc5c(N)ncnc54)[C@H](O)[C@@H]3O)[C@@H](O)[C@H]2O)c1; test: purified protein; assay type: biochemical, Pseudomonas syringae; settings: DL-threo-β-phenylserine as co-substrate, 0.2 M glycine-KCl-KOH pH 10.5, 30°C (standard assay), varied: cofactor
purified protein [3] = substrate: NC(C(=O)O)C(O)c1ccccc1; test: purified protein; assay type: biochemical, Pseudomonas syringae; settings: NAD+ as co-substrate, 0.2 M glycine-KCl-KOH pH 10.5, 30°C (standard assay), racemic DL-threo substrate

Molecule | stoichiometry N [1] | Km (purified protein [2]) [mM] | Km (purified protein [3]) [mM]
L-phenylserine dehydrogenase (ORF3) from Pseudomonas syringae NK-15 (enzyme) | 4 | – | –
B1 | – | 2.1 | 59
